Values of other authors as cited in patent US12377186B2, “Antimicrobial biopolymer compositions, methods of synthesis, and applications of use” (ARIZONA BOARD OF REGENTS ON BEHALF OF THE UNIVERSITY OF …, priority 2018, dated 2025).

Details: cited from earlier work

[(VPGAG)2 (VPGYG)1 (VPGAG)2]36 [ELP (A2Y1A2)36]
Tt, experimental of ELP (Tyr) (180 ELP pentapeptide repeats, according to previous research by Ingrole et al.): 25 °C
change in Tt when fused to a hydrophilic peptide (relative to the smaller ELP(A2Y1A2)24): less change in Tt
